In patent US20230265151A1, “GIP/GLP1 CO-AGONIST COMPOUNDS” (priority 2020, published 2023):
Numbering of substitutions follows the chain as printed. *1 amine or outer side, *2 acyl side, *3 side chain or, on linkers, in order; H or OH if unused. Where no end group is shown, it is not given here. Side-chain parts run from the residue outwards. [ ]: non-standard residue; d: D form. The star is where a group is joined. Decanoyl(10-(4-HOOC-PhO)) = O=C(O)c1ccc(OCCCCCCCCCC(=O)*)cc1; αMePhe(2-F) = C[C@](N)(Cc1ccccc1F)C(=O)O; γGlu = O=C(O)[C@H](CCC(=O)[*:2])N[*:1]; C14 diacid = O=C(O)CCCCCCCCCCCCC(=O)*; αMeY = C[C@](N)(Cc1ccc(O)cc1)C(=O)O; αMeL = CC(C)C[C@](C)(N)C(=O)O; Orn = NCCC[C@H](N)C(=O)O; AEEA = NCCOCCOCC(=O)O; Aib = CC(C)(N)C(=O)O

T1: human GIP receptor (human, UniProt P48546 22-466)
T1 sequence (looked up): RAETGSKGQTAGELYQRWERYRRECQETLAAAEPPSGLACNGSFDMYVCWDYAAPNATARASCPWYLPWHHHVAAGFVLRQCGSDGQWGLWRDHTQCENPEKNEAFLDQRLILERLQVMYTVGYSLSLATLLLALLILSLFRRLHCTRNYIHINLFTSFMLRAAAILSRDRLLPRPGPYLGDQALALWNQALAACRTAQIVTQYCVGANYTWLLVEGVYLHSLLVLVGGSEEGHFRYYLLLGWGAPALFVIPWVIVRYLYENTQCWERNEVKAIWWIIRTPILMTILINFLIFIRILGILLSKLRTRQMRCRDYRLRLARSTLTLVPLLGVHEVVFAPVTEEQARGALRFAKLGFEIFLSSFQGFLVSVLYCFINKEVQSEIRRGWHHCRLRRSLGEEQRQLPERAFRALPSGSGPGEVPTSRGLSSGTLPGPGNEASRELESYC

T2: human GIP receptor (human) (UniProt P48546)
T2 sequence (looked up): T1 sequence (looked up)

B1: Example 357 (peptide)
peptide: YXEGTXTSDXXIXLDXKAQXKFIXXLIEGGPSSGAPPPS
modifications: Y-Aib-EGT-αMeF(2F)-TSD-4Pal-Aib-I-αMeL-LD-Orn-K((2-[2-(2-Amino-ethoxy)-ethoxy]-acetyl)2-(γ-Glu)-CO-(CH2)12-CO2H)AQ-Aib-K((2-[2-(2-Amino-ethoxy)-ethoxy]-acetyl)2-(γ-Glu)-CO-(CH2)12-CO2H)FI-(D-Glu)-αMeY-LIEGGPSSGAPPPS-NH2
B2: Example 359 (peptide)
peptide: YXEGTXTSDXXIXLDXKAQXEFIXXLIEGGPSSGAPPPSK
modifications: Y-Aib-EGT-αMeF(2F)-TSD-4Pal-Aib-I-αMeL-LD-Orn-K((2-[2-(2-Amino-ethoxy)-ethoxy]-acetyl)2-(γ-Glu)-CO-(CH2)12-CO2H)AQ-Aib-EFI-(D-Glu)-αMeY-LIEGGPSSGAPPPSK((2-[2-(2-Amino-ethoxy)-ethoxy]-acetyl)2-(γ-Glu)-CO-(CH2)12-CO2H)-NH2
B3: Example 360 (peptide)
peptide: B1 peptide
modifications: Y-Aib-EGT-αMeF(2F)-TSD-4Pal-Aib-I-αMeL-LD-Orn-K((2-[2-(2-Amino-ethoxy)-ethoxy]-acetyl)-(γ-Glu)-(10-(4-carboxyphenoxy)decanoyl))AQ-Aib-K((2-[2-(2-Amino-ethoxy)-ethoxy]-acetyl)-(γ-Glu)-(10-(4-carboxyphenoxy)decanoyl))FI-(D-Glu)-αMeY-LIEGGPSSGAPPPS-NH2
B4: Example 362 (peptide)
peptide: B2 peptide
modifications: Y-Aib-EGT-αMeF(2F)-TSD-4Pal-Aib-I-αMeL-LD-Orn-K((2-[2-(2-Amino-ethoxy)-ethoxy]-acetyl)-(y-Glu)-(10-(4-carboxyphenoxy)decanoyl))AQ-Aib-EFI-(D-Glu)-αMeY-LIEGGPSSGAPPPSK((2-[2-(2-Amino-ethoxy)-ethoxy]-acetyl)-(γ-Glu)-(10-(4-carboxyphenoxy)decanoyl))-NH2
B5: Example 366 (peptide)
peptide: B1 peptide with X10Y
modifications: Y-Aib-EGT-αMeF(2F)-TSDY-Aib-I-αMeL-LD-Orn-K((2-[2-(2-Amino-ethoxy)-ethoxy]-acetyl)-(γ-Glu)-CO-(CH2)12-CO2H)AQ-Aib-K((2-[2-(2-Amino-ethoxy)-ethoxy]-acetyl)-(γ-Glu)-CO-(CH2)12-CO2H)FI-(D-Glu)-αMeY-LIEGGPSSGAPPPS-NH2
B6: Example 372 (peptide)
peptide: B1 peptide with X10Y
modifications: Y-Aib-EGT-αMeF(2F)-TSDY-Aib-I-αMeL-LD-Orn-K((2-[2-(2-Amino-ethoxy)-ethoxy]-acetyl)-(γ-Glu)-(10-(4-carboxyphenoxy)decanoyl))AQ-Aib-K((2-[2-(2-Amino-ethoxy)-ethoxy]-acetyl)-(γ-Glu)-(10-(4-carboxyphenoxy)decanoyl))FI-(D-Glu)-αMeY-LIEGGPSSGAPPPS-NH2
B7: Example 373 (peptide)
peptide: B1 peptide with X10Y, K21E, E28K
modifications: Y-Aib-EGT-αMeF(2F)-TSDY-Aib-I-αMeL-LD-Orn-K((2-[2-(2-Amino-ethoxy)-ethoxy]-acetyl)-(γ-Glu)-(10-(4-carboxyphenoxy)decanoyl))AQ-Aib-EFI-(D-Glu)-αMeY-LIK((2-[2-(2-Amino-ethoxy)-ethoxy]-acetyl)-(γ-Glu)-(10-(4-carboxyphenoxy)decanoyl))GGPSSGAPPPS-NH2
B8: Example 374 (peptide)
peptide: B2 peptide with X10Y
modifications: Y-Aib-EGT-αMeF(2F)-TSDY-Aib-I-αMeL-LD-Orn-K((2-[2-(2-Amino-ethoxy)-ethoxy]-acetyl)-(γ-Glu)-(10-(4-carboxyphenoxy)decanoyl))AQ-Aib-EFI-(D-Glu)-αMeY-LIEGGPSSGAPPPSK((2-[2-(2-Amino-ethoxy)-ethoxy]-acetyl)-(γ-Glu)-(10-(4-carboxyphenoxy)decanoyl))-NH2
B9: Example 376 (peptide)
peptide: B1 peptide with X10Y, K17I, E28K
modifications: Y-Aib-EGT-αMeF(2F)-TSDY-Aib-I-αMeL-LD-Orn-IAQ-Aib-K((2-[2-(2-Amino-ethoxy)-ethoxy]-acetyl)-(γ-Glu)-(10-(4-carboxyphenoxy)decanoyl))FI-(D-Glu)-αMeY-LIK((2-[2-(2-Amino-ethoxy)-ethoxy]-acetyl)-(γ-Glu)-(10-(4-carboxyphenoxy)decanoyl))GGPSSGAPPPS-NH2
B10: Example 377 (peptide)
peptide: B2 peptide with X10Y, K17I, E21K
modifications: Y-Aib-EGT-αMeF(2F)-TSDY-Aib-I-αMeL-LD-Orn-IAQ-Aib-K((2-[2-(2-Amino-ethoxy)-ethoxy]-acetyl)-(γ-Glu)-(10-(4-carboxyphenoxy)decanoyl))FI-(D-Glu)-αMeY-LIEGGPSSGAPPPSK((2-[2-(2-Amino-ethoxy)-ethoxy]-acetyl)-(γ-Glu)-(10-(4-carboxyphenoxy)decanoyl))-NH2
B11: Example 378 (peptide)
peptide: B1 peptide with X10V
modifications: Y-Aib-EGT-αMeF(2F)-TSDV-Aib-I-αMeL-LD-Orn-K((2-[2-(2-Amino-ethoxy)-ethoxy]-acetyl)-(γ-Glu)-(10-(4-carboxyphenoxy)decanoyl))AQ-Aib-K((2-[2-(2-Amino-ethoxy)-ethoxy]-acetyl)-(γ-Glu)-(10-(4-carboxyphenoxy)decanoyl))FI-(D-Glu)-αMeY-LIEGGPSSGAPPPS-NH2
B12: Example 384 (peptide)
peptide: B1 peptide
modifications: Y-Aib-EGT-αMeF(2F)-TSD-4Pal-Aib-I-αMeL-LD-Orn-K((2-[2-(2-Amino-ethoxy)-ethoxy]-acetyl)2-CO-(CH2)12-CO2H)AQ-Aib-K((2-[2-(2-Amino-ethoxy)-ethoxy]-acetyl)2-CO-(CH2)12-CO2H)FI-(D-Glu)-αMeY-LIEGGPSSGAPPPS-NH2
B13: Example 385 (peptide)
peptide: B1 peptide with X10Y
modifications: Y-Aib-EGT-αMeF(2F)-TSDY-Aib-I-αMeL-LD-Orn-K((2-[2-(2-Amino-ethoxy)-ethoxy]-acetyl)2-CO-(CH2)12-CO2H)AQ-Aib-K((2-[2-(2-Amino-ethoxy)-ethoxy]-acetyl)2-CO-(CH2)12-CO2H)FI-(D-Glu)-αMeY-LIEGGPSSGAPPPS-NH2
B14: Example 386 (peptide)
peptide: B1 peptide with X10V
modifications: Y-Aib-EGT-αMeF(2F)-TSDV-Aib-I-αMeL-LD-Orn-K((2-[2-(2-Amino-ethoxy)-ethoxy]-acetyl)2-CO-(CH2)12-CO2H)AQ-Aib-K((2-[2-(2-Amino-ethoxy)-ethoxy]-acetyl)2-CO-(CH2)12-CO2H)FI-(D-Glu)-αMeY-LIEGGPSSGAPPPS-NH2
B15: Example 388 (peptide)
peptide: B1 peptide with X10Y, K21E, E28K
modifications: Y-Aib-EGT-αMeF(2F)-TSDY-Aib-I-αMeL-LD-Orn-K((2-[2-(2-Amino-ethoxy)-ethoxy]-acetyl)2-CO-(CH2)12-CO2H)AQ-Aib-EFI-(D-Glu)-αMeY-LIK((2-[2-(2-Amino-ethoxy)-ethoxy]-acetyl)2-CO-(CH2)12-CO2H)GGPSSGAPPPS-NH2

What was measured:
Assay in all cases: cell-based or functional assay
human GIP receptor = biological target: T1, human GIP receptor
human GLP-1 receptor = human GLP-1 receptor (human, UniProt P43220 24-463)
human glucagon receptor = human glucagon receptor (human, UniProt P47871 26-477)
human glucagon receptor, sequence (P47871 26-477): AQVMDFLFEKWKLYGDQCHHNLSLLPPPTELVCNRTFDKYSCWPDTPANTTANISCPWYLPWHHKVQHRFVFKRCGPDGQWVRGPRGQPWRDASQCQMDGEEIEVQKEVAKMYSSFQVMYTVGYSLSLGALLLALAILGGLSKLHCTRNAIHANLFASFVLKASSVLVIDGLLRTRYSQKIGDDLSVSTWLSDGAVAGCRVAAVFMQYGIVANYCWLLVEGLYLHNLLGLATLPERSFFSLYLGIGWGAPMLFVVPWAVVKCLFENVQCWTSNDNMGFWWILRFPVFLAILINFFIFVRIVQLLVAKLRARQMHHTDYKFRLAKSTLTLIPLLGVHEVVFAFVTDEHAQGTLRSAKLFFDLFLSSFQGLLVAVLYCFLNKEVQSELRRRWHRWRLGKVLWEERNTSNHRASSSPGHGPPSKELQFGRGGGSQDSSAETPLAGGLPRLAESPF

[1] = biological target: human glucagon receptor (human) (UniProt P47871)
[2] = biological target: T2, human GIP receptor (human)
hGLP-1R = hGLP-1R (Homo sapiens, UniProt P43220)

Binder | cAMP EC50 (1.0% HSA) (human GIP receptor) [nM] | cAMP EC50 (1.0% HSA) (human GLP-1 receptor) [nM] | cAMP Emax (1.0% HSA) (human GLP-1 receptor) [%] | cAMP EC50 (1.0% HSA) (human glucagon receptor) [nM] | cAMP EC50 [1] [nM] | cAMP EC50 [2] [nM] | cAMP Emax [2] [%] | cAMP EC50 (hGLP-1R) [nM] | cAMP Emax (hGLP-1R) [%] | cAMP Emax (1.0% HSA) (human GIP receptor) [%]
B1 | 1.19 | 36.2 | 92.8 | > 9950 | > 10100 | 0.011 | 99.9 | 0.649 | 107 | 
B2 | 1.58 | 40.5 | 95.1 | > 9950 | > 10100 | 0.0261 | 103 | 1.18 | 104 | 81
B3 | 1.91 | 28.2 |  | > 9950 | > 9950 | 0.0121 | 106 | 0.301 | 89.8 | 
B4 | 0.936 | 29.9 |  | > 9950 | > 10100 | 0.0131 |  | 0.34 | 109 | 
B5 | 3.14 | 96.2 |  | > 9950 | > 9950 | 0.0162 | 108 | 0.279 | 89.6 | 95.9
B6 | 3.75 | 38 |  | > 9950 | > 9950 | 0.0112 | 97.3 | 0.291 | 108 | 90.6
B7 | 2.84 | 37.4 |  | > 9950 | > 9950 | 0.0152 | 101 | 0.329 | 101 | 
B8 | 1.96 | 39.7 |  | > 9950 | > 9950 | 0.0135 | 96.2 | 0.269 | 106 | 88.8
B9 | 39.6 | 419 | 121 | > 9950 | > 9950 | 0.0281 | 99.8 | 0.539 | 104 | 88.3
B10 | 17.5 | 178 | 110 | > 9950 | > 9950 | 0.0205 | 92.8 | 0.356 | 100 | 79.4
B11 | 7.46 | 47.7 |  | > 9950 | > 9950 | 0.0132 | 93.5 | 0.166 | 98.9 | 81.2
Y[Aib]EGT[αMePhe(2-F)]TSDV[Aib]I[αMeL]LD[Orn]K([AEEA-γGlu-Decanoyl(10-(4-HOOC-PhO))])AQ[Aib]EFI[dE][αMeY]LIK([AEEA-γGlu-Decanoyl(10-(4-HOOC-PhO))])GGPSSGAPPPS-NH2 [Example 379] | 11.6 | 48.5 |  | > 9950 | > 9950 | 0.0167 | 97.5 | 0.171 | 104 | 90
Y[Aib]EGT[αMePhe(2-F)]TSDV[Aib]I[αMeL]LD[Orn]K([AEEA-AEEA-γGlu-Decanoyl(10-(4-HOOC-PhO))])AQ[Aib]EFI[dE][αMeY]LIEGGPSSGAPPPSK([AEEA-AEEA-γGlu-Decanoyl(10-(4-HOOC-PhO))])-NH2 [Example 380] | 9.23 | 28 | 94.5 | > 9950 | > 9950 | 0.0209 | 100 | 0.176 | 96.2 | 93.5
Y[Aib]EGT[αMePhe(2-F)]TSDV[Aib]I[αMeL]LD[Orn]IAQ[Aib]K([AEEA-γGlu-Decanoyl(10-(4-HOOC-PhO))])FI[dE][αMeY]LIK([AEEA-γGlu-Decanoyl(10-(4-HOOC-PhO))])GGPSSGAPPPS-NH2 [Example 382] | 18.7 | 204 |  | > 9950 | > 9950 | 0.0302 | 97.6 | 0.619 | 101 | 87.2
Y[Aib]EGT[αMePhe(2-F)]TSDV[Aib]I[αMeL]LD[Orn]IAQ[Aib]K([AEEA-AEEA-γGlu-Decanoyl(10-(4-HOOC-PhO))])FI[dE][αMeY]LIEGGPSSGAPPPSK([AEEA-AEEA-γGlu-Decanoyl(10-(4-HOOC-PhO))])-NH2 [Example 383] | 10.7 | 92.2 | 102 | > 9950 | > 9950 | 0.0147 | 100 | 0.306 | 105 | 82.8
B12 | 0.457 | 5.32 |  | > 9950 | > 9950 | 0.0124 | 94.5 | 0.308 | 98.2 | 
B13 | 0.558 | 10.6 | 112 | > 9950 | > 9950 | 0.0154 | 95.2 | 0.189 | 100 | 83.5
B14 | 2.08 | 17.7 |  | > 9950 | > 9950 | 0.0174 | 95.7 | 0.194 | 98.9 | 81.3
B15 | 0.463 | 6.31 |  | > 9950 | > 9950 | 0.0103 | 98.3 | 0.292 | 95.4 | 
Y[Aib]EGT[αMePhe(2-F)]TSDV[Aib]I[αMeL]LD[Orn]K([AEEA-AEEA-C14 diacid])AQ[Aib]EFI[dE][αMeY]LIK([AEEA-AEEA-C14 diacid])GGPSSGAPPPS-NH2 [Example 389] | 1.5 | 9.58 |  | > 9950 | > 9950 | 0.0178 | 94.6 | 0.19 | 92.4 | 82
